In patent publication EP2061494B1 (Universita' Degli Studi di Torino, dated 2012):

Target: Src kinase (endogenous protein of MCF7 cells) (human, UniProt P12931 2-536)
Assay: cell-based or functional assay

B1: p140Cap (endogenous protein of MCF7 human breast carcinoma cell extracts) (other, UniProt Q9C0H9 1-1183, looked up)
chain: MGNAPSQDPERSSPPMLSADDAEYPREYRTLGGGGGGGSGGRRFSNVGLVHTSERRHTVIAAQSLEALSGLQKADADRKRDAFMDHLKSKYPQHALALRGQQDRMREQPNYWSFKTRSSRHTQGAQPGLADQAAKLSYASAESLETMSEAELPLGFSRMNRFRQSLPLSRSASQTKLRSPGVLFLQFGEETRRVHITHEVSSLDTLHALIAHMFPQKLTMGMLKSPNTAILIKDEARNVFYELEDVRDIQDRSIIKIYRKEPLYAAFPGSHLTNGDLRREMVYASRESSPTRRLNNLSPAPHLASGSPPPGLPSGLPSGLQSGSPSRSRLSYAGGRPPSYAGSPVHHAAERLGGAPAAQGVSPSPSAILERRDVKPDEDLASKAGGMVLVKGEGLYADPYGLLHEGRLSLAAAAGDPFAYPGAGGLYKRGSVRSLSTYSAAALQSDLEDSLYKAAGGGGPLYGDGYGFRLPPSSPQKLADVAAPPGGPPPPHSPYSGPPSRGSPVRQSFRKDSGSSSVFAESPGGKTRSAGSASTAGAPPSELFPGPGERSLVGFGPPVPAKDTETRERMEAMEKQIASLTGLVQSALLRGSEPETPSEKIEGSNGAATPSAPCGSGGRSSGATPVSGPPPPSASSTPAGQPTAVSRLQMQLHLRGLQNSASDLRGQLQQLRKLQLQNQESVRALLKRTEAELSMRVSEAARRQEDPLQRQRTLVEEERLRYLNDEELITQQLNDLEKSVEKIQRDVSHNHRLVPGPELEEKALVLKQLGETLTELKAHFPGLQSKMRVVLRVEVEAVKFLKEEPQRLDGLLKRCRGVTDTLAQIRRQVDEGVWPPPNNLLSQSPKKVTAETDFNKSVDFEMPPPSPPLNLHELSGPAEGASLTPKGGNPTKGLDTPGKRSVDKAVSVEAAERDWEEKRAALTQYSAKDINRLLEETQAELLKAIPDLDCASKAHPGPAPTPDHKPPKAPHGQKAAPRTEPSGRRGSDELTVPRYRTEKPSKSPPPPPPRRSFPSSHGLTTTRTGEVVVTSKKDSAFIKKAESEELEVQKPQVKLRRAVSEVARPASTPPIMASAIKDEDDEDRIIAELESGGGSVPPMKVVTPGASRLKAAQGQAGSPDKSKHGKQRAEYMRIQAQQQATKPSKEMSGSNETSSPVSEKPSASRTSIPVLTSFGARNSSISF
Src activity induced by adhesion to fibronectin (in vitro kinase assay) after shRNA down-regulation of p140Cap: 5 fold
